Test: yeast display, Sf9 membrane polyspecificity reagent, FACS + sequencing; frameworks hold sequencing errors
How it was run: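 Synthetic nanobody libraries on Saccharomyces cerevisiae BJ5465 were galactose-induced for 36–48 hours, stained 1 hour at 4 °C with 10% biotinylated, detergent-solubilized Sf9 membrane reagent and enriched on streptavidin microbeads. FACS then separated cells into low and high (top ~1%) gates by anti-HA (expression) and streptavidin (reagent binding) fluorescence. Genes were colony-PCR amplified, MiSeq 2 × 250 sequenced and CDR-length filtered. A clone's polyreactivity label is that of its gate of origin.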

Row | Sequence | polyreactivity (PSR sort gate)
1 | QVQLVESGGGLDQAGGSLRLTCAPYGLISDRNAIGWYRQAPGKERDLVASIRSGGSTYYADSVKGRFTFSRDNAKNTVYLEMNSLKPEDTAVYYCAAGGGHTPVSYYLVPYMDYWGQGTQVTVAS | low polyreactivity
2 | QVQLVESGGGLVQAGGSLRLSCAASGSIFVTNVMGWYRQAPGKERELVAVINSGGRTYYADSVKGRFTISRDNAKNTVYLQMNSLKPEDTAVYYCAKDSWSSFQSLYPEFDYWGQGTQVTVSS | low polyreactivity
3 | QVQLAESGGGLVQAGGSLRLSCAASGRTFSQYGMGWYRQAPGKERELVARIRRSGGSTYYADSVKGRFTISRDNAKNTVYLQMNSLKPEDTAVYYCAARYYWFGQYQYNYWGQGTQVTVSS | high polyreactivity
4 | QVQFVESGGGLVQSGGSLRLSCAASGSIFRAYAMGWYRPAPGKEREFVAAISRRGGSTSYADSVKGRFTISRDYAKNTVYLQMNSLKPEDTAVYYCAATYQILTTSAHDSWGQGTQVTVSS | high polyreactivity
5 | QVQLVESGGGLVQAGGSLRLSCAASGFTFGRYAMGGYRQAPGKERELVAAITSRGGSTYYADSVKGRFTISRDNAKNTVYLQMNSLKPEDTAVYYCAAATNTGPRGYEYWGQGTQVTVSS | high polyreactivity
6 | QVQLVESGVGLVQAGGSLRLSCAASGRIFHLYAMGWYRQAPGKERELVAAITFSGGSTYYADSVKGRFTISRDNAMNTVYLQMNSLKPEDTAVYYFAKRSFYWFSSRLPFKYDYWGQGTQVTVSS | low polyreactivity
7 | QVQLVESGGGLVQAGGSLRLSCAASGRTFLGYAMGCYRQAPGKERELVATITKRGSSTYYADSVKGRFTISRDNANNTVYLQMTSLKPEDTAVYYCAARRYPRRFAIDYWGQGTQVTVSS | high polyreactivity
8 | QVHLVESGGGLVKAGGSLRISCAASGRTSVLYAMGWYRQAPGKDREFVAAITWNSGSTYYADSVKGRFTISRDNAKHTVYLQMNCLKPEDTAVYYCAADVYYEYDYWGQGTQVTVSS | low polyreactivity
9 | QVQLVESGGGLVQAGGILRLSCAASGSTFYENAMGWYRQAPGKERELVAAITWSGGRTYYADSVKGRFTISRDNAKNTVYLQMNSLKPEDTAVYYCNARARSRKFYYWGQVTQVTVSS | high polyreactivity
10 | QVQLVESGGGLVQAGGSLRLSCAASGSILYYYAMGWYRQAPVKERELVATITSGGTTNYADSVKGRFTISRDNAKNTVYLQMISLKPEDTAVYYCAADWAWDTKSAPAYPRAYDYWGPGTQVTVSS | low polyreactivity
11 | QVQLVESGGGLVQAGGSLRLSCAASGSNKQNAMGWYRQSPGKERELLARISKYGGSTYADSVKGRFTISRDNAKNTVYLQMNSLKPEDTAVYYCNAVKRDRNHHATKCEYAYWGQGTPVTVSS | low polyreactivity
12 | QVQLVESGGGLVQAGGSLRLSCAASGRIIYPYVMGWYRQAHGKERELVAAITRSGDRTYYADSVKGRFTISRDNAKNTVYLQMNSLKPEDTAVYYCAATNVRGVYYWGQGTQVTVSS | high polyreactivity
13 | QVQLVESGGGLVQAGGSLRLSCAASGFTFVYYTMGWSSQAPGKERELVAAISSSGGRTSYADSVKGRFTISRDNEKNTVYLQMNSLKPEDTAVYYCAARAYPTWRTYYYWGQGTQVTVSS | high polyreactivity
14 | QVQLVESGGGLVQAGGSLRLSCAASGSTFVDNAMGWYRQAPGKEREMVAAIRYGSGGSTRYADSVKGRFTISRDNAKNTVYLQMNSLKPEDTAVYYCAADGYITVNYLRYDYWGQGTQVTVSS | low polyreactivity
15 | QVHLVESGVGLDQAGGSLRLSCASTGYIFETYAMGWYRPATGKERELVAAISRGASTYYADSVKGRFTISRDNAQNTVSLQLNSLKQEDTAVYYCAPTRRSWHRYGYWGQGTQVTVSS | low polyreactivity
16 | QVQLVESGGGLVQAGGSLRLSCAASGSIFSYYAMGWYRQAPGKERELVAAITIRGGRTYYADSVKGRFTISRDNAKNSVYLQMNSLKPEDTAVYYCAAETGHKQHGYTYEVSRRCYGYWGQGTQVTVSS | low polyreactivity
17 | PVQLVETGGGLVQAGGSLRLSCAASGGIFTLYVLGWYRQPPGKERELVAAISRTGGSTYYADSVKARFTISRDNAKNTVYLQMNSLKPEDTAVYYCAADYRQPSAFYYWGQGTQVTVSS | high polyreactivity
18 | QVQLVESGGGLVQAGGSLRLSCAASGSTFPVYVMGWYRQAPGKERELVATITIVVSTKYADSVKGRFTISRDNAKNTVYLQMNSLKPEDTAVYYCAKDDVYRDSYLVFDGEMDYWGQGTQVTVSS | low polyreactivity
19 | QVQLVESGGGLVQAGGSLRLSCAASGRTFWFYTMGWYRKAPGKEREFVAAISSGGSTNYADSVKGRFTISRDNAKYSVYLQMNSLKPEDTALYYCNARFQVGQSEYAVWYYPKYDYWGQGTQVTVSS | low polyreactivity
20 | QVQLVESGGGLVQAGGSLRLSCAASGRTFVPYAMGWYRQAPGKEREFVAAISSRVASTYYADSVKGRFTISRDNAKNTVYLQMNSLKPEDTAVYYCARTNPAYSIYDYWGQGTQVTVSS | low polyreactivity
21 | QVQLVESGGGLVQAGGSLRLSCAASGSIFSTYAMGWYRQAPGKERELVAAITSDGTYADSVKGRFTISRDNAKNTVYLQLNSLKPEDTAVYYCNKDIKSATDSYHYEDDYWGQGTQVTVSS | low polyreactivity
22 | QVQLVESGGGLVQAGGSLRLSCAAYGSIFETYVMGWYRQAPGKERELVAAINSGGSTNYADSVKGRFTISRDNAKNTVYLQMNSLKPEDTAVYYCNADWFTPAQPWYRYFIRYDYWGQGTQVTVSS | low polyreactivity

Row | Sequence | polyreactivity (PSR sort gate)
23 | QVQLVESGGGLDQAGGSLRLSCAASGRIFFAYAMGWYRQAPGKEREFVAAISDNDGSTFYADSVKGRFTISRDNAKNPVYLQMNSLKPEDTAVYYCNADLGYVYDYWGQGTQVTVSS | low polyreactivity
24 | QVQLVDSGGGLVQAGGRLRLSCAPSGLTFARNAMGWYIQAPGKERELVAAISRSGGRTSYADSVKGRFTISRDIAKNTVYVQMNSLKPVDTAVYYCAARSDVYSHDYWGQGTQVTVSS | high polyreactivity
25 | QVQLVESGGGLVQAGGSLRLSCAASGSTFVYNAMGWYRQAPGKERELVAAITVIGGRTYYADSVKGRFTISRDNAKNTVYLQMISLKPEDTAVYYCNADATESIGYYDEYEYWGQGTQVTVSS | low polyreactivity
26 | QVQLVESGAPLVQAGGSLRLSCAASGSTFERYVMGWYRQRLGNKGSWLPVLNHNGGSTYYADSVKGRFTISRDNAKNTVYLQMNSLKPEDTAVYYCAASFRTVLDYGYWGQGTQVTVSS | low polyreactivity
27 | QVQLVESGGGLVQAGGSLRLSCAASGFTFTYYAMGWYRQAPGKERELVASISRRGGDTYYADSVKGRFTISRDNAKNTVYLQMNSLKPEDTAVYYCATRRRQALDGGYYYWGQGTQVTVSS | high polyreactivity
28 | QVQLVESGGGLVQAGGSLRLSCAASGSIFGAYTMGWYRQAPGKERELVAAISRSGSTYYADSVKGRFTISRDNAKNTVYLQMKSLKPEDTAVYYCYGVGYSGLRRYYKYDYWGQGTQVTVSS | high polyreactivity
29 | QVQIVESGGGLVKAGGSLRLSCAASGSTFERYAMGWYRQAPGKERELVAAINWSGGGTYYADSVKGRFTISRDNAKNTVYLQMNSLKPEDTAVYYCAADSGTVVFSLWWYEYYYWGQGTQVTVSS | low polyreactivity
30 | QVQLVESGGGLVQAGGSLRLSCAASGSIFGGYAMGWYRQAPGKERELVAAIDESGGSTYYADSVKGRFTISRDNAKNTVYLQMNSLKPDDTAVDYCLVFRDDSGPGDYYYWGQGTQVTVSS | low polyreactivity
31 | QVQLVESGGGLVQAGGSLRLSCAASGFTYIDYAMGWYRQAPGKERELVAAITSRGGTTYYADSVKGRFTISRDNAKNTVYLLMNSLKPEDTAVYYCNAGSSFWVSRIGYDYWGQGTQVTVSS | high polyreactivity
32 | QVQLVESGGGLVQAGGSLRLSCASSGITFGRNTMGWYRQAPGKERELVAAIDSGGNTYADSVKGRFTISRDNAKNTVYLQMNSLKPEDTAVYYCDVDGGEFSSYGYWGQGTQVTVSS | low polyreactivity
33 | QVQHVESGGGLVQAGGSLRLSCAASGFIFPVNAMGWYRQAPGKERELVAAITYSTGSTYYADSVKGRFTISRDNAKNTVYLQMNSLKPEDTAVYSCAADVPPGEVVTNDYWGQGTQVTVSS | low polyreactivity
34 | QVQLVESGGGLVQAGGSLRLSCAASGRIFSVYTMGWYRQAPGKEREFVASITGSAGSTYYADSVKGRFTISRDNAKNTVYLQMNSLKPEDTAVYYCAKRITAWYTYYGYWGQGTQVTVSS | low polyreactivity
35 | QVQLVESGGGLVQAGGSLRLSCAASGLTFYYYAMGWYRQAPGKERELVAAISRSGGSTYYADSVKGRFTISRDNAKNTVYLQMNSLKPEDTAVYYCAADYFTLYPYRGYDYWGQGTQVTVSS | low polyreactivity
36 | QVQLVESGGGLVQAGGSLRLSCAASGSTFDYYAMGWYRQAPGKVRELGAAITTSGGSTYYADSVKGRFTISRDNAKNTVYLQINCLKPEDTAVYYCAAESYWYGTSPYYYLYEYDYWGQGTQVTVSS | high polyreactivity
37 | QVQLVESGGGLVQAGGSLRLSCAASGSISRGNVMGWYRQAPGKERELVAGITRGGRTNYADSVKGRFTISRDNAKNTVYLQMNSLKPEDTAVYYCATYTYYVPWRQRGGYPDFDYWGQGTQVTVSS | high polyreactivity
38 | QVQLVESGGGLVQAGGSLRLSCAASGFIFVPYAMGWYRQAPGKERELVATITWRGDSTYYADSVKGRFTISRDNAKNTVYLQMNSLKPEDTAVYYCAAVGPIRGYSSDEYWGQGTQVTVSS | low polyreactivity
39 | QVQLVESGGGLVQAGGSLRLSCAASGRILDYNAMGWYRQAPGKERELVAAITYTGGDTYYADSVKGRFTISRDNAKNTVYLQMNSLKPEDTAVYYCSADFGPYYRFDYWGQGTQVTVSS | low polyreactivity
40 | QVQLVESGGGLVQAGGILRISCAASGRTFASNAMGWYRRAPGKERELVAAMSSSGGRTYYADSVKGRITISRDNAKNTVYLQMNSLKPEYTPVFYCAKVGPVYKYDYWGQGTQVTVSS | high polyreactivity
41 | QVQLVESGGGLVQAGGSLRLSCAASGFTFVGYVMGWYRQAPGKERELVAAISRRGRSTYYADSVKGRFTISRDNAKNTVYLQMNSLKPEDTAVYYCNKRWSSKSVQYDYWGQGTQVTVSS | high polyreactivity
42 | QVQLVESGGGLVQAGGSLRLSCAASGSILARYAMGWYRPAPGKERELVAAISSRGGSTYYADSVKGRFTISRDNAKNTVYLEINSLKPEDTAVYSCAAYVYLQVEYDYWGHGTQVTVSS | low polyreactivity
43 | QVQLVESGGGLVQAGGSLRLSCAASGSIFGRYGAIGWYRQAPGKERELVAAINRSGGITYYADSVKGRFTISRDNAKNTVYLQMNSLKPEDTAVYYFNADAYYYSTSPRGAFDWPYDYWGQGTQVNVSS | low polyreactivity
